Positions count from the first letter of the chain named.
B1: ABL-CD3-56 (antibody, V domains shown)
VH: EVQLVESGGGLVKPGGSLRLSCVASGFTFSRYSMNWVRQAPGKGLEWVSSISSSSRYTYYADSLKGRFIMSRDNAKNSLFLQMNSLRAEDTAVYYCARNLYNALDYWGQGTLVTVSS
VL: FMLTQPHSVSESPGKTVTISCTRSSGSIASNYVQWYQQRPGSSPTTVIYEDNQRPSGVPDRFSGSIDSSSNSASLTISGLQTEDEADYYCQSYDSSNRVFGGGTKLTVL
notes: Chimeric hybridoma mAb: human V, CH1, upper hinge; mouse middle hinge, CH2, CH3
B2: ABL-CD3-12 (antibody, V domains shown)
VH: EVQLVESGGGLVKPGGSLRLSCAASGFTFSSYTMNWVRQAPGKGLEWVSSISRSSSYKYYADSVKGRFTISRDNAKNSLYLQMNSLRAEDTAVYYCAREPPTLGMDYWGQGTLVIVSS
VL: NFMLTQPHSVSESPGKTVTISCTRSNGSITSNYVQWYQQRPGSSPTTVIYEDNQRPSGVPDRFSGSIDSSSNSASLTISGLKTEDEADYYCQSFDNSNRVFGEKTKLTVL
notes: as for B1
B3: ABL-CD3-54 (antibody, V domains shown)
VH: EVQLVESGGGLVKPGGSLRLSCAASGFTFSSYSMNWVRQAPGKGLEWVSSISRSSRYIFYADSVRGRFTISRDNAKNSLYLQMNSLRAEDTAVYYCAREKRELLFDYWGQGTLVTVSS
VL: B2 VL with F2S, N26S, T30A, N32Y, N96S, E103G, K104G
notes: as for B1
B4: ABL-CD3-53 (antibody, V domains shown)
VH: EVQLVESGGGLVKPGGSLRLSCAASGFTFSSYTMNWVRQAPGKGLEWVSSITTSSSYIYYADSVKGRFTISRDNAKNSLYLQMNSLRAEDTAVYYCARVTFDAFDIWGQGTMVTVSS
VL: B2 VL with N26S, T30A, F94Y, N96S, E103G, K104G
notes: as for B1
B5: ABL-CD3-20 (antibody, V domains shown)
VH: B3 VH with F27L, S31T, R53S, S55G, R56S, I58V, F59Y, R65K, I70M, K100R
VL: B2 VL with N26S, T30A, T47S, F94Y, N96R, E103G, K104G
notes: as for B1
B6: ABL-CD3-55 (antibody, V domains shown)
VH: B3 VH with S31I, R53S, S54G, R56S, F59Y, R65K, N77S, Y80F
VL: B2 VL with N26S, T30A, S69R, F94Y, N96S, E103G, K104G
notes: as for B1
B7: ABL-CD3-28 (antibody, V domains shown)
VH: QVQLQQSGPGLVKPSQTLSLTCAISGDSVSSNSVAWNWIRQSPSRGLEWLGRTYYRSKWYNECAGSVKSRITINPDTSKNQFSLQLNSVTPEDTAIYYCARERKWELFLDYWGQGTLVTVSS
VL: B2 VL with N26S, T30A, N96S, R99V, E103G, K104G
notes: as for B1
B8: ABL-CD3-47 (antibody, V domains shown)
VH: EVQLVESGGGLVQPGGSLRLSCAASGFTFSRYSMNWVRQAPGKGLEWVSYISRSSTTIYYADSVKGRFTISRDNAKNSLYLQMNSLRDEDAAVYYCARERWELLYFDYWGQGTLVTVSS
VL: B2 VL with N26S, T30A, N32K, F94Y, D95Y, N96S, S97N, E103G, K104G
notes: as for B1
B9: ABL-CD3-24 (antibody, V domains shown)
VH: B2 VH with A23V, S55G, Y60N, A88V, I115T
VL: B2 VL with N26S, T30A, D95Y, N96S, E103G, K104G, K106E
notes: as for B1
B10: ABL-CD3-26 (antibody, V domains shown)
VH: B2 VH with Q3H, T33S, R53S, S56T, K58I, P101R, T112I, I115T
VL: B2 VL with N26S, T30A, Q54H, Y90F, N96S, E103G, K104G
notes: as for B1
B11: ABL-CD3-10 (antibody, V domains shown)
VH: B7 VH with S31C, Y60H, C63Y, G65V, T72N, N74K, F82V, N87K, I96V
VL: B2 VL with N26S, T30A, V48M, F94L, N96S, N98S, R99V, E103G, K104G
notes: as for B1
B12: ABL-CD3-50 (antibody, V domains shown)
VH: B7 VH with Y55S, E62D, C63Y, G65V, Q85E, I96V
VL: B2 VL with N26S, T30A, S43I, N96T, R99V, E103G, K104G
notes: as for B1
B13: CD3 × CD33-BspAb36 (bispecific antibody)
chain 1: not shown
chain 2: EVQLVQSGAEVKKPGSSVKVSCKASGYTITDSNIHWVRQAPGQSLEWIGYIYPYNGGTDYNQKFKNRATLTVDNPTNTAYMELSSLRSEDTAFYYCVNGNPWLAYWGQGTLVTVSSASTKGPSVFPLAPSSKSTSGGTAALGCLVKDYFPEPVTVSWNSGALTSGVHTFPAVLQSSGLYSLSSVVTVPSSSLGTQTYICNVNHKPSNTKVDKRVEPKSCDKTHTCPPCPAPEFEGGPSVFLFPPKPKDTLMISRTPEVTCVVVDVSHEDPEVKFNWYVDGVEVHNAKTKPREEQYNSTYRVVSVLTVLHQDWLNGKEYKCKVSNKALPASIEKTISKAKGQPREPQVCTLPPSREEMTKNQVSLSCAVKGFYPSDIAVEWESNGQPENNYKTTPPVLDSDGSFFLVSKLTVDKSRWQQGNVFSCSVMHEALHNRFTQKSLSLSPGK
chain 3: DIQLTQSPSTLSASVGDRVTITCRASESLDNYGIRFLTWFQQKPGKAPKLLMYAASNQGSGVPSRFSGSGSGTEFTLTISSLQPDDFATYYCQQTKEVPWSFGQGTKVEVKRTVAAPSVFIFPPSDEQLKSGTASVVCLLNNFYPREAKVQWKVDNALQSGNSQESVTEQDSKDSTYSLSSTLTLSKADYEKHKVYACEVTHQGLSSPVTKSFNRGEC
B14: CD3 × CD33-BspAb42 (bispecific antibody)
chain 1: EVQLVESGGGLVKPGGSLRLSCAASGFTLSSYSMNWVRQAPGKCLEWVSSISRSGSYIYYADSVKGRFTISRDNAKNSLYLQMNSLRAEDTAVYYCAREKWELLYFDYWGQGTLVTVSSGGGGSGGGGSGGGGSGGGGSNFMLTQPHSVSESPGKTVTISCTRSSGSIASNYVQWYQQRPGSSPTTVIYEDNQRPSGVPDRFSGSIDSSSNSASLTISGLKTEDEADYYCQSYDSSNRVFGCGTKLTVLDKTHTCPPCPAPEFEGGPSVFLFPPKPKDTLMISRTPEVTCVVVDVSHEDPEVKFNWYVDGVEVHNAKTKPREEQYNSTYRVVSVLTVLHQDWLNGKEYKCKVSNKALPASIEKTISKAKGQPREPQVYTLPPCREEMTKNQVSLWCLVKGFYPSDIAVEWESNGQPENNYKTTPPVLDSDGSFFLYSKLTVDKSRWQQGNVFSCSVMHEALHNHYTQKSLSLSPGK
chain 2: B13 chain 2
chain 3: B13 chain 3
B15: CD3 × CD33-BspAb39 (bispecific antibody)
chain 1: not shown
chain 2: B13 chain 2
chain 3: B13 chain 3
B16: CD3 × CD33-BspAb45 (bispecific antibody)
chain 1: EVQLVESGGGLVQPGGSLRLSCAASGFTFSRYSMNWVRQAPGKCLEWVSYISSSSSSIYYADSVKGRFTISRDNAKNSLYLQMNSLRDEDTAVYYCARDRRATLDYWGQGTLVTVSSGGGGSGGGGSGGGGSGGGGSNFMLTQPHSVSESPGKTVTISCTRSSGSIASNYVQWYQQRPGSSPTTVIYEDNQRPSGVPDRFSGSIDSSSNSASLTISGLKTEDEADYYCQSYDSSNHVFGCGTKLTVLDKTHTCPPCPAPEFEGGPSVFLFPPKPKDTLMISRTPEVTCVVVDVSHEDPEVKFNWYVDGVEVHNAKTKPREEQYNSTYRVVSVLTVLHQDWLNGKEYKCKVSNKALPASIEKTISKAKGQPREPQVYTLPPCREEMTKNQVSLWCLVKGFYPSDIAVEWESNGQPENNYKTTPPVLDSDGSFFLYSKLTVDKSRWQQGNVFSCSVMHEALHNHYTQKSLSLSPGK
chain 2: B13 chain 2
chain 3: B13 chain 3
B17: CD3 × CD33-BspAb38 (bispecific antibody)
chain 1: not shown
chain 2: B13 chain 2
chain 3: B13 chain 3

Molecular target: T1, recombinant human CD3 epsilon/delta heterodimer (human, UniProt P07766 23-126; P04234 22-105)
T1 construct: Recombinant protein in solution (200-50 nM) in the Octet assay; also called hCD3 E/D; human CD3E/D
T1 sequence (P07766 23-126, stated change not applied, chain 1 of 2): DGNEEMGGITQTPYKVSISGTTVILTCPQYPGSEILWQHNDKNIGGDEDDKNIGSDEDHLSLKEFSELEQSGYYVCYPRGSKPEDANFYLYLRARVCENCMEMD
T1 sequence (P04234 22-105, stated change not applied, chain 2 of 2): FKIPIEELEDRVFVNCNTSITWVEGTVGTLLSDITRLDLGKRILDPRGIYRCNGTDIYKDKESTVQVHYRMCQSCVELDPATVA
Experiment: Octet BLI, mAb on FAB2G sensor, hCD3 E/D 200-50 nM; R^2 0.99

In order of rising Kd:
1. B11  2.47 nM
2. B1  3.96 nM
3. B9  5.78 nM
4. B10  6.66 nM
5. B7  7.88 nM
6. B5  10.5 nM
7. B2  10.6 nM
8. B8  16.9 nM
9. B3  17.6 nM
10. B12  21 nM
11. B4  146 nM
12. B6  183 nM

In order of rising Response:
1. B6  0.13
2. B4  0.24
3. B5  0.51
4. B11  0.52
5. B12  0.57
6. B8  0.62
7. B7  0.77
8. B3  0.87
9. B9  0.93
10. B10  1.03
11. B2  1.21
12. B1  1.24

In order of falling koff:
1. B6  0.069 s⁻¹
2. B4  0.0199 s⁻¹
3. B12  0.0047 s⁻¹
4. B8  0.00291 s⁻¹
5. B3  0.00267 s⁻¹
6. B5  0.00229 s⁻¹
7. B2  0.00144 s⁻¹
8. B7  0.00133 s⁻¹
9. B10  0.00104 s⁻¹
10. B9  0.00101 s⁻¹
11. B1  0.000522 s⁻¹
12. B11  0.00046 s⁻¹

In order of falling kon:
1. B6  376000 M⁻¹ s⁻¹
2. B12  224000 M⁻¹ s⁻¹
3. B5  219000 M⁻¹ s⁻¹
4. B11  186000 M⁻¹ s⁻¹
5. B9  175000 M⁻¹ s⁻¹
6. B8  172000 M⁻¹ s⁻¹
7. B7  168000 M⁻¹ s⁻¹
8. B10  156000 M⁻¹ s⁻¹
9. B3  152000 M⁻¹ s⁻¹
10. B2  136000 M⁻¹ s⁻¹
11. B4  136000 M⁻¹ s⁻¹
12. B1  132000 M⁻¹ s⁻¹

Molecular target: T2, recombinant human CD3 epsilon/gamma heterodimer (human, UniProt P07766 23-126; P09693 23-116)
T2 construct: Recombinant protein in solution (200-50 nM) in the Octet assay; also called hCD3 E/G
T2 sequence (P07766 23-126, chain 1 of 2): as the sequence (P07766 23-126, stated change not applied, chain 1 of 2) above
T2 sequence (P09693 23-116, chain 2 of 2): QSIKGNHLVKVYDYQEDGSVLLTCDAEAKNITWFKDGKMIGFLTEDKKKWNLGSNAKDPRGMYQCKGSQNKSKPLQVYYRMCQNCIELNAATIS
Experiment: Octet BLI, mAb on FAB2G sensor, hCD3 E/G 200-50 nM; R^2 0.99

In order of falling Kd:
1. B6  141 nM
2. B4  88.7 nM
3. B8  36.2 nM
4. B3  19.3 nM
5. B5  18.3 nM
6. B12  12.6 nM
7. B2  10.5 nM
8. B10  9.31 nM
9. B9  8.48 nM
10. B7  5.6 nM
11. B11  2.41 nM
12. B1  0.94 nM

In order of falling Response:
1. B1  1.3
2. B2  1.14
3. B10  1.01
4. B9  0.89
5. B3  0.87
6. B7  0.77
7. B12  0.6
8. B11  0.46
9. B5  0.45
10. B8  0.43
11. B4  0.4
12. B6  0.08

In order of rising koff:
1. B1  0.000102 s⁻¹
2. B11  0.00039 s⁻¹
3. B7  0.000798 s⁻¹
4. B10  0.00123 s⁻¹
5. B2  0.00124 s⁻¹
6. B9  0.00134 s⁻¹
7. B12  0.00247 s⁻¹
8. B3  0.00258 s⁻¹
9. B5  0.00379 s⁻¹
10. B4  0.00714 s⁻¹
11. B8  0.00785 s⁻¹
12. B6  0.0894 s⁻¹

In order of rising kon:
1. B4  80500 M⁻¹ s⁻¹
2. B1  109000 M⁻¹ s⁻¹
3. B2  118000 M⁻¹ s⁻¹
4. B10  132000 M⁻¹ s⁻¹
5. B3  134000 M⁻¹ s⁻¹
6. B7  143000 M⁻¹ s⁻¹
7. B9  158000 M⁻¹ s⁻¹
8. B11  162000 M⁻¹ s⁻¹
9. B12  196000 M⁻¹ s⁻¹
10. B5  207000 M⁻¹ s⁻¹
11. B8  217000 M⁻¹ s⁻¹
12. B6  636000 M⁻¹ s⁻¹

Molecular target: recombinant CD3 proteins
Experiment: Octet (BLI), bispecific antibody against recombinant CD3 proteins

In order of rising Kd:
1. B17  81 nM
2. B14  133 nM
3. B16  177 nM
4. B13  205 nM
5. B15  299 nM

In order of falling Response:
1. B16  0.58
2. B14  0.51
3. B13  0.42
4. B17  0.28
5. B15  0.1

In order of rising koff:
1. B13  0.00334 s⁻¹
2. B14  0.0186 s⁻¹
3. B17  0.0203 s⁻¹
4. B16  0.0529 s⁻¹
5. B15  0.117 s⁻¹

In order of falling kon:
1. B15  391000 M⁻¹ s⁻¹
2. B16  299000 M⁻¹ s⁻¹
3. B17  250000 M⁻¹ s⁻¹
4. B14  139000 M⁻¹ s⁻¹
5. B13  16300 M⁻¹ s⁻¹

Reference: patent US20260167721A1 (ABLEXIS, published 2026)
